We go through two molecules from WO2010028798A1 (dated 2010).

The experiment concerns the target human CCR5 (human, UniProt P51681 1-352). Put plainly: cell-based or functional assay.

human CCR5, sequence (P51681 whole entry): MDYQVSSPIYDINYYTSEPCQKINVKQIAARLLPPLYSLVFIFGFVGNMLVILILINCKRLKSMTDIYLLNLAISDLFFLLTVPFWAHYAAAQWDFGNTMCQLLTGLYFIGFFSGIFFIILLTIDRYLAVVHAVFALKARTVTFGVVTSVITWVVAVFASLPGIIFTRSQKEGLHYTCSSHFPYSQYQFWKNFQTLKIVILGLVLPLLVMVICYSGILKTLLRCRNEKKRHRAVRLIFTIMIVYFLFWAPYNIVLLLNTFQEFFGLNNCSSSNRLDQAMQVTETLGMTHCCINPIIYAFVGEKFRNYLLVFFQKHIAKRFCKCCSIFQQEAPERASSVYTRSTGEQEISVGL

B1: AA-2320 (antibody)
chain 1: EVKLVESGGGLVKPGGSLKLSCAASGFTFSTYAMSWVRQTPEKRLEWVASISTGDNTYYTDSVRGRFTISRDNARNILYLQMSSLRSEDTAMYFCTRGRGDRGDLFGYWGQGTLVTVSS
chain 2: GGGGSGGGGSEVKLVESGGGLVKPGGSLKLSCAASGFTFSTYAMSWVRQTPEKRLEWVASISTGDNTYYTDSVRGRFTISRDNARNILYLQMSSLRSEDTAMYFCTRGRGDRGDLFGYWGQGTLVTVSSGGGGSGGGGSGGGGSDIVMSQSPSSLAVSVGEKVTMSCKSSQSLLYRGNQMNYLAWYQQKPGQSPKLLIYWASTRESGVPDRFTGSGSGTEFTLTISSVKAEDLTVYYCQQYYTYPRTFGGGTKLEIKR
chain 3: DIVMSQSPSSLAVSVGEKVTMSCKSSQSLLYRGNQMNYLAWYQQKPGQSPKLLIYWASTRESGVPDRFTGSGSGTEFTLTISSVKAEDLTVYYCQQYYTYPRTFGGGTKLEIKR
On to B1, for which the “IC50, antiviral assay in PBMC (HIV-1 NLBal, p24 ELISA)” value amounted to 0.088 nM.

B2: AN-1000 (antibody, V domains shown)
VH: EVKLVESGGGLVKPGGSLKLSCAASGFTFSTYAMSWVRQTPEKRLEWVASISTGDNTYYTDSVRGRFTISRDNARNILYLQMSSLRSEDTAMYFCTRGRGDRGDLFGYWGQGTLVTVSS
VL: DIVMSQSPSSLAVSVGEKVTMSCKSSQSLLYRGNQMNYLAWYQQKPGQSPKLLIYWASTRESGVPDRFTGSGSGTEFTLTISSVKAEDLTVYYCQQYYTYPRTFGGGTKLEIKR
On to B2, for which the “IC50, antiviral assay in PBMC (HIV-1 NLBal, p24 ELISA)” value amounted to 0.988 nM.
